Experimental findings from IntAct's records for PubMed 31515488 are described below.

B1: Microtubule-associated tumor suppressor candidate 2 (Homo sapiens), Q5JR59-3 (parent)
chain: MGHCCCKPYNCLQCLDKTNESALVKEKELSIELANIRDEVAFHTAKCEKLQKEKEELERRFEDEVKRLGWQQQAELQELEERLQLQFEAEMARLQEEHGDQLLSIRCQHQEQVEDLTASHDAALLEMENNHTVAITILQDDHDHKVQELMSTHELEKKELEENFEKLRLSLQDQVDTLTFQSQSLRDRARRFEEALRKNTEEQLEIALAPYQHLEEDMKSLKQVLEMKNQQIHEQEKKILELEKLAEKNIILEEKIQVLQQQNEDLKARIDQNTVVTRQLSEENANLQEYVEKETQEKKRLSRTNEELLWKLQTGDPTSPIKLSPTSPVYRGSSSGPSSPARVSTTPR
partner: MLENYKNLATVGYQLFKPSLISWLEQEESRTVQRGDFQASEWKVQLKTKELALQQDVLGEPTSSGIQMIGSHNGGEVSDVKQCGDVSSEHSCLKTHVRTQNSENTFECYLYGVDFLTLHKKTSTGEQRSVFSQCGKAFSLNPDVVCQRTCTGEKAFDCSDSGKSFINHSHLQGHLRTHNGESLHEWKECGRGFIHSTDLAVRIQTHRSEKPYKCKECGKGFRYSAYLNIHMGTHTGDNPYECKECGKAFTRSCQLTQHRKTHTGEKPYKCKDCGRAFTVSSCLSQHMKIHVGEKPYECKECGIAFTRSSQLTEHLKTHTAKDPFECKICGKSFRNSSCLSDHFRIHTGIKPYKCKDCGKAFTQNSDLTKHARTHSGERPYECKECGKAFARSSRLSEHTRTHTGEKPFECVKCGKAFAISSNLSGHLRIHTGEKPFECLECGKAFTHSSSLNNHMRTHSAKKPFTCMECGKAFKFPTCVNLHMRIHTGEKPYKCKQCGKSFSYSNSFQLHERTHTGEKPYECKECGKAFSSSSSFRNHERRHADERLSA
B2: Prolyl 4-hydroxylase subunit alpha-3 (Homo sapiens), Q7Z4N8 (parent)
chain: MGPGARLAALLAVLALGTGDPERAAARGDTFSALTSVARALAPERRLLGLLRRYLRGEEARLRDLTRFYDKVLSLHEDSTTPVANPLLAFTLIKRLQSDWRNVVHSLEASENIRALKDGYEKVEQDLPAFEDLEGAARALMRLQDVYMLNVKGLARGVFQRVTGSAITDLYSPKRLFSLTGDDCFQVGKVAYDMGDYYHAIPWLEEAVSLFRGSYGEWKTEDEASLEDALDHLAFAYFRAGNVSCALSLSREFLLYSPDNKRMARNVLKYERLLAESPNHVVAEAVIQRPNIPHLQTRDTYEGLCQTLGSQPTLYQIPSLYCSYETNSNAYLLLQPIRKEVIHLEPYIALYHDFVSDSEAQKIRELAEPWLQRSVVASGEKQLQVEYRISKSAWLKDTVDPKLVTLNHRIAALTGLDVRPPYAEYLQVVNYGIGGHYEPHFDHATSPSSPLYRMKSGNRVATFMIYLSSVEAGGATAFIYANLSVPVVRNAALFWWNLHRSGEGDSDTLHAGCPVLVGDKWVANKWIHEYGQEFRRPCSSSPED
B3: Tubby-related protein 3 (Homo sapiens), O75386 (parent)
chain: MEASRCRLSPSGDSVFHEEMMKMRQAKLDYQRLLLEKRQRKKRLEPFMVQPNPEARLRRAKPRASDEQTPLVNCHTPHSNVILHGIDGPAAVLKPDEVHAPSVSSSVVEEDAENTVDTASKPGLQERLQKHDISESVNFDEETDGISQSACLERPNSASSQNSTDTGTSGSATAAQPADNLLGDIDDLEDFVYSPAPQGVTVRCRIIRDKRGMDRGLFPTYYMYLEKEENQKIFLLAARKRKKSKTANYLISIDPVDLSREGESYVGKLRSNLMGTKFTVYDRGICPMKGRGLVGAAHTRQELAAISYETNVLGFKGPRKMSVIIPGMTLNHKQIPYQPQNNHDSLLSRWQNRTMENLVELHNKAPVWNSDTQSYVLNFRGRVTQASVKNFQIVHKNDPDYIVMQFGRVADDVFTLDYNYPLCAVQAFGIGLSSFDSKLACE
B4: Alpha-taxilin (Homo sapiens), P40222 (parent)
chain: MKNQDKKNGAAKQSNPKSSPGQPEAGPEGAQERPSQAAPAVEAEGPGSSQAPRKPEGAQARTAQSGALRDVSEELSRQLEDILSTYCVDNNQGGPGEDGAQGEPAEPEDAEKSRTYVARNGEPEPTPVVNGEKEPSKGDPNTEEIRQSDEVGDRDHRRPQEKKKAKGLGKEITLLMQTLNTLSTPEEKLAALCKKYAELLEEHRNSQKQMKLLQKKQSQLVQEKDHLRGEHSKAVLARSKLESLCRELQRHNRSLKEEGVQRAREEEEKRKEVTSHFQVTLNDIQLQMEQHNERNSKLRQENMELAERLKKLIEQYELREEHIDKVFKHKDLQQQLVDAKLQQAQEMLKEAEERHQREKDFLLKEAVESQRMCELMKQQETHLKQQLALYTEKFEEFQNTLSKSSEVFTTFKQEMEKMTKKIKKLEKETTMYRSRWESSNKALLEMAEEKTVRDKELEGLQVKIQRLEKLCRALQTERNDLNKRVQDLSAGGQGSLTDSGPERRPEGPGAQAPSSPRVTEAPCYPGAPSTEASGQTGPQEPTSARA
partner: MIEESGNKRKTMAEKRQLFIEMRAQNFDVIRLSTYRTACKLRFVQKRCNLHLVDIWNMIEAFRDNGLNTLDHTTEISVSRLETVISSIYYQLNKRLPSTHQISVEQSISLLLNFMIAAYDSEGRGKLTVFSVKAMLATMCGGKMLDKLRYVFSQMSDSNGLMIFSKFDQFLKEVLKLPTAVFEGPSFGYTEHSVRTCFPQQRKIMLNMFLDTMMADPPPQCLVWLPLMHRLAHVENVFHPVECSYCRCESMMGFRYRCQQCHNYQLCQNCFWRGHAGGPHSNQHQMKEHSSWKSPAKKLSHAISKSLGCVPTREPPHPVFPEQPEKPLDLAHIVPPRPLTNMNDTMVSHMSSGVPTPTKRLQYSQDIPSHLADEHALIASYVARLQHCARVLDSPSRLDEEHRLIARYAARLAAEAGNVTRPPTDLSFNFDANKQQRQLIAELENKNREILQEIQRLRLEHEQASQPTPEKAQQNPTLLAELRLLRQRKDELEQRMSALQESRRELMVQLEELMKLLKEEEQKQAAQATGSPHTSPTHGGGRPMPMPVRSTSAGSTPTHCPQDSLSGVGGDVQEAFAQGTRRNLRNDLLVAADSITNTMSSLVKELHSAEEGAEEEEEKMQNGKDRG
B5: Charged multivesicular body protein 4a (Homo sapiens), Q9BY43 (parent)
chain: MSGLGRLFGKGKKEKGPTPEEAIQKLKETEKILIKKQEFLEQKIQQELQTAKKYGTKNKRAALQALRRKKRFEQQLAQTDGTLSTLEFQREAIENATTNAEVLRTMELAAQSMKKAYQDMDIDKVDELMTDITEQQEVAQQISDAISRPMGFGDDVDEDELLEELEELEQEELAQELLNVGDKEEEPSVKLPSVPSTHLPAGPAPKVDEDEEALKQLAEWVS
partner: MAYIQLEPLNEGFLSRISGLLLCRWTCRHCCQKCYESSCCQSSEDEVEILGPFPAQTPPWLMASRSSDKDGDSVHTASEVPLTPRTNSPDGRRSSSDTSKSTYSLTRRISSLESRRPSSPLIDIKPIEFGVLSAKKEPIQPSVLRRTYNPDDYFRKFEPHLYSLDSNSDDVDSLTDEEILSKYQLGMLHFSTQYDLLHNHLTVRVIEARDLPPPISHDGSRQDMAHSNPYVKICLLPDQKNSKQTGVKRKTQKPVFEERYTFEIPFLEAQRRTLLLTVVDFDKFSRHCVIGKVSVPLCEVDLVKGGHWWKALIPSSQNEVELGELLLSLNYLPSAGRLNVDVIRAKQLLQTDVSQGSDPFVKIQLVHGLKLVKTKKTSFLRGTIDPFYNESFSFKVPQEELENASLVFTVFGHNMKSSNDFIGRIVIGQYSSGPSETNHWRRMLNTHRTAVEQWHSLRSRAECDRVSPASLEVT
B6: Mevalonate kinase (Homo sapiens), Q03426 (parent)
chain: MLSEVLLVSAPGKVILHGEHAVVHGKVALAVSLNLRTFLRLQPHSNGKVDLSLPNIGIKRAWDVARLQSLDTSFLEQGDVTTPTSEQVEKLKEVAGLPDDCAVTERLAVLAFLYLYLSICRKQRALPSLDIVVWSELPPGAGLGSSAAYSVCLAAALLTVCEEIPNPLKDGDCVNRWTKEDLELINKWAFQGERMIHGNPSGVDNAVSTWGGALRYHQGKISSLKRSPALQILLTNTKVPRNTRALVAGVRNRLLKFPEIVAPLLTSIDAISLECERVLGEMGEAPAPEQYLVLEELIDMNQHHLNALGVGHASLDQLCQVTRARGLHSKLTGAGGGGCGITLLKPGLEQPEVEATKQALTSCGFDCLETSIGAPGVSIHSATSLDSRVQQALDGL
B7: Fructose-bisphosphate aldolase C (Homo sapiens), P09972 (parent)
chain: MPHSYPALSAEQKKELSDIALRIVAPGKGILAADESVGSMAKRLSQIGVENTEENRRLYRQVLFSADDRVKKCIGGVIFFHETLYQKDDNGVPFVRTIQDKGIVVGIKVDKGVVPLAGTDGETTTQGLDGLSERCAQYKKDGADFAKWRCVLKISERTPSALAILENANVLARYASICQQNGIVPIVEPEILPDGDHDLKRCQYVTEKVLAAVYKALSDHHVYLEGTLLKPNMVTPGHACPIKYTPEEIAMATVTALRRTVPPAVPGVTFLSGGQSEEEASFNLNAINRCPLPRPWALTFSYGRALQASALNAWRGQRDNAGAATEEFIKRAEVNGLAAQGKYEGSGEDGGAAAQSLYIANHAY
partner: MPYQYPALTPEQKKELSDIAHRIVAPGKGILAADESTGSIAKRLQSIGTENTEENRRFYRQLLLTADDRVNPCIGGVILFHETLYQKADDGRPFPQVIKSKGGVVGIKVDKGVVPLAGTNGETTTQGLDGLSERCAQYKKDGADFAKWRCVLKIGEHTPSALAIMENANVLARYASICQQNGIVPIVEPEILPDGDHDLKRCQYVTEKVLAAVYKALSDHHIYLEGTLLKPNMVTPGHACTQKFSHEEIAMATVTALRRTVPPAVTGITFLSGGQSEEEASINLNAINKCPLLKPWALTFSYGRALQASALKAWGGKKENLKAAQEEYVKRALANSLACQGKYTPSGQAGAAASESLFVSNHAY
B8: Dynein light chain Tctex-type 3 (Homo sapiens), P51808 (parent)
chain: MEEYHRHCDEVGFNAEEAHNIVKECVDGVLGGEDYNHNNINQWTASIVEQSLTHLVKLGKAYKYIVTCAVVQKSAYGFHTASSCFWDTTSDGTCTVRWENRTMNCIVNVFAIAIVL
B9: Tetratricopeptide repeat protein 14 (Homo sapiens), Q96N46 (parent)
chain: MDRDLLRQSLNCHGSSLLSLLRSEQQDNPHFRSLLGSAAEPARGPPPQHPLQGRKEKRVDNIEIQKFISKKADLLFALSWKSDAPATSEINEDSEDHYAIMPPLEQFMEIPSMDRRELFFRDIERGDIVIGRISSIREFGFFMVLICLGSGIMRDIAHLEITALCPLRDVPSHSNHGDPLSYYQTGDIIRAGIKDIDRYHEKLAVSLYSSSLPPHLSGIKLGVISSEELPLYYRRSVELNSNSLESYENVMQSSLGFVNPGVVEFLLEKLGIDESNPPSLMRGLQSKNFSEDDFASALRKKQSASWALKCVKIGVDYFKVGRHVDAMNEYNKALEIDKQNVEALVARGALYATKGSLNKAIEDFELALENCPTHRNARKYLCQTLVERGGQLEEEEKFLNAESYYKKALALDETFKDAEDALQKLHKYMQKSLELREKQAEKEEKQKTKKIETSAEKLRKLLKEEKRLKKKRRKSTSSSSVSSADESVSSSSSSSSSGHKRHKKHKRNRSESSRSSRRHSSRASSNQIDQNRKDECYPVPANTSASFLNHKQEVEKLLGKQDRLQYEKTQIKEKDRCPLSSSSLEIPDDFGGRSEDPRDFYNSYKTQAGSSKTEKPYKSERHFSSRRNSSDSFCRNSEDKIYGYRRFEKDIEGRKEHYRRWEPGSVRHSTSPASSEYSWKSVEKYKKYAHSGSRDFSRHEQRYRLNTNQGEYEREDNYGEDIKTEVPEEDALSSKEHSESSVKKNLPQNLLNIFNQIAEFEKEKGNKSKN

Variants of B1 are the subject of the first test. The conditions noted are these: with zn266_human ZNF266, Q14584.
Consider A89V, for which the “effect of a mutation on the interaction” value is given as “with no effect”.

A further test covers variants of B2. The note with it: with maga2_human MAGEA2, P43356.
Sequence of maga2_human MAGEA2, P43356 (P43356 whole entry): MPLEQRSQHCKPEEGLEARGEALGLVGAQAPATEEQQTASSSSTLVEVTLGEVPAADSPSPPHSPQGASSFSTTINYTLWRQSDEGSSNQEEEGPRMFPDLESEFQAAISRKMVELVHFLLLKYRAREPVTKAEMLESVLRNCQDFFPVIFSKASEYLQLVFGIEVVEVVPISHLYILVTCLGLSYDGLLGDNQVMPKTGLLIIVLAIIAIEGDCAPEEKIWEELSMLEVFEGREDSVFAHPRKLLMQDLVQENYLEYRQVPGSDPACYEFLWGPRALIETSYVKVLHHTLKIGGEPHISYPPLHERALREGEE
Turning to S378L, the “effect of a mutation on the interaction” value is listed as “disrupting interaction strength”.

A further test covers variants of B2. The conditions noted are these: with nutm1_human NUTM1, Q86Y26.
Sequence of nutm1_human NUTM1, Q86Y26 (Q86Y26 whole entry): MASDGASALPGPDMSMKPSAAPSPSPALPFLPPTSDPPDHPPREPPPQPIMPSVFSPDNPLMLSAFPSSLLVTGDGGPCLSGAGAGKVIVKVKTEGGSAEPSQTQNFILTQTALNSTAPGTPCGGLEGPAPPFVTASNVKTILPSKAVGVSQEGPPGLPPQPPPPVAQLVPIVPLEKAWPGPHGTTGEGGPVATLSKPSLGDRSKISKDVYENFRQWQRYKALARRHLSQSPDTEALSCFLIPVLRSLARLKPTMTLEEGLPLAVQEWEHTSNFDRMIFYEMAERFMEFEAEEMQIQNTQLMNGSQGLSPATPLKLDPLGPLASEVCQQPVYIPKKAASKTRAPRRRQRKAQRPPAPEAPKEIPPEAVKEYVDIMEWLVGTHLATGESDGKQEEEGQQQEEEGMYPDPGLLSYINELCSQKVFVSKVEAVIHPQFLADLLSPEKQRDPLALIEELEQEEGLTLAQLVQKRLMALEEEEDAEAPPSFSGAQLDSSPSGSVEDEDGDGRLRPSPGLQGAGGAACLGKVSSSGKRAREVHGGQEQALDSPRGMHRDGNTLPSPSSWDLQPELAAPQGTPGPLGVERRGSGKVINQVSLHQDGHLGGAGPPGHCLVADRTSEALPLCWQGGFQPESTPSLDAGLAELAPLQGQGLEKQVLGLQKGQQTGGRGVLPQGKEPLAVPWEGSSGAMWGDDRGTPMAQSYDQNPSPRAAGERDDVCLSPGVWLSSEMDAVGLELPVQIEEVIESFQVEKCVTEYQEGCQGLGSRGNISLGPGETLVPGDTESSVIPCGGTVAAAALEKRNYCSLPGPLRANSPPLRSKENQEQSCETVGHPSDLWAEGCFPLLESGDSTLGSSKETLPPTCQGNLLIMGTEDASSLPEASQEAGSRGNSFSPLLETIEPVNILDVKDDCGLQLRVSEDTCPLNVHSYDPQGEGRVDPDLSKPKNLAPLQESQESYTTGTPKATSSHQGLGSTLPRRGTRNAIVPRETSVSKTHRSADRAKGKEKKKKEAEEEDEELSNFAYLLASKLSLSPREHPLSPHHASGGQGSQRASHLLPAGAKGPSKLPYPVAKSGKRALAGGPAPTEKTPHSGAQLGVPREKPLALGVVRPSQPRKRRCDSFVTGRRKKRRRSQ
Take S378L: the “effect of a mutation on the interaction” value is “disrupting interaction strength”.

In another test the parent is B3. The conditions noted are these: with maga6_human MAGEA6, P43360.
Sequence of maga6_human MAGEA6, P43360 (P43360 whole entry): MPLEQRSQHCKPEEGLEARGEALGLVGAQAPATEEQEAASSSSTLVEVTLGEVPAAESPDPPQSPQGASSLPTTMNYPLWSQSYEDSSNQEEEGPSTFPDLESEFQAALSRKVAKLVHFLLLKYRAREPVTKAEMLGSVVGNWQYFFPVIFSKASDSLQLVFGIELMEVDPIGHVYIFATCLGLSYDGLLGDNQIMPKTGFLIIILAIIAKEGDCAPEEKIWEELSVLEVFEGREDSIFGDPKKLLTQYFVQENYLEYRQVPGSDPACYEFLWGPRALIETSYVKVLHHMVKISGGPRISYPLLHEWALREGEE
Regarding G267S, the “effect of a mutation on the interaction” value is on record as “disrupting interaction strength”. Turning to A296E, the “effect of a mutation on the interaction” value was “with no effect”.

The variants in another test derive from B3. The conditions noted are these: with anr54_human ANKRD54, Q6NXT1.
Sequence of anr54_human ANKRD54, Q6NXT1 (Q6NXT1 whole entry): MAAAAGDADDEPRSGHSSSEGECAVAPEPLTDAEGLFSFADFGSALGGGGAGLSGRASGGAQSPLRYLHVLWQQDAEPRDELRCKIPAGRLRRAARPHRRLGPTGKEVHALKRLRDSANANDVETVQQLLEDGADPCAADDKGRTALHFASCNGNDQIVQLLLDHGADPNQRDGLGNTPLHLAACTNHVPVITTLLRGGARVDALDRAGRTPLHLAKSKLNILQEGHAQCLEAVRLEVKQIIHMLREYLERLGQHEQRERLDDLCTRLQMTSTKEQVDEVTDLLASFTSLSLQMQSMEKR
With G267S, the “effect of a mutation on the interaction” value is “with no effect”.

Variants of B4 are the subject of another test. The note with it: with dtnb_human DTNB.
As to R154G, the “effect of a mutation on the interaction” value is listed as “disrupting interaction strength”.

In the next test the parent is B5. The note with it: with syt17_human SYT17, Q9BSW7.
Take G153R: the “effect of a mutation on the interaction” value was “with no effect”.

The next test covers variants of B6. The conditions noted are these: with ews_human EWSR1, Q01844.
Sequence of ews_human EWSR1, Q01844 (Q01844 whole entry): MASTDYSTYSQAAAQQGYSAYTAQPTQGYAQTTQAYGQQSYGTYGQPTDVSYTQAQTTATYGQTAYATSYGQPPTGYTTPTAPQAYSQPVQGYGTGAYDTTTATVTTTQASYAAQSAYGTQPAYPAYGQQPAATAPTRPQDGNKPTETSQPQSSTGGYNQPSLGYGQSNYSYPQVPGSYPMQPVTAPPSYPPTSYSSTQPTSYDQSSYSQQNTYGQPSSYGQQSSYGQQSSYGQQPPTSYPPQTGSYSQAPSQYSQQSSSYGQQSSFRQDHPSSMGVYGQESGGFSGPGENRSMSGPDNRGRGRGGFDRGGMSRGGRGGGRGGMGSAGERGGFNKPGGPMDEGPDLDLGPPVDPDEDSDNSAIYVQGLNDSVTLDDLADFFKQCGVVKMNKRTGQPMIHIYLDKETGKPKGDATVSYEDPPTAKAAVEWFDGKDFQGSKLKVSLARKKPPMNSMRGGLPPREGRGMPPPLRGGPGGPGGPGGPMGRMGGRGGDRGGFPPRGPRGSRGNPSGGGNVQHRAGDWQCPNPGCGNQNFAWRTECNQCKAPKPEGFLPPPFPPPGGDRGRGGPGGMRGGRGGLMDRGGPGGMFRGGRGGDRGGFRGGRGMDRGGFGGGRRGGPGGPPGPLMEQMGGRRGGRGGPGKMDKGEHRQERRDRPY
As for N301T, the “effect of a mutation on the interaction” value is reported as “with no effect”.

A further test covers variants of B7. The note with it: with aldoa_human ALDOA.
With N312S, the “effect of a mutation on the interaction” value is reported as “with no effect”.

In a further test the parent is B8. The conditions noted are these: with dc1i2_human DYNC1I2, Q13409.
Sequence of dc1i2_human DYNC1I2, Q13409 (Q13409 whole entry): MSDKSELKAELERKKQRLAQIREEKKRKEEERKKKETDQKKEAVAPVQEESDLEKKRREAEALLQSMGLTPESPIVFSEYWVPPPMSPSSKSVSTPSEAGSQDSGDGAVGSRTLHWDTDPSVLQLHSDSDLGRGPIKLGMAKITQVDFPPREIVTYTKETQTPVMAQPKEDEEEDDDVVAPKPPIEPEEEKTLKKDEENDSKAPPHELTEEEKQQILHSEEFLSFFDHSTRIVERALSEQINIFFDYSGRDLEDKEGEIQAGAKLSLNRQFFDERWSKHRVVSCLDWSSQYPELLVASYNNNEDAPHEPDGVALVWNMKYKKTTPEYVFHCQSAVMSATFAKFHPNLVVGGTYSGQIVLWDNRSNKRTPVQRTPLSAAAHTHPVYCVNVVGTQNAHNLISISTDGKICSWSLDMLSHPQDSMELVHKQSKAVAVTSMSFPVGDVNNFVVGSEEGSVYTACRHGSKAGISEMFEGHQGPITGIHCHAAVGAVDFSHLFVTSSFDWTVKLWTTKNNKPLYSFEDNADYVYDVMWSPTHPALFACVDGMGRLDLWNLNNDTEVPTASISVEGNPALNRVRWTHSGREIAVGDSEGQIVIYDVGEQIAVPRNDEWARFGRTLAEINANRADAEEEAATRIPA
As to A75T, the “effect of a mutation on the interaction” value is recorded as “with no effect”.

In another test the parent is B9. The note with it: with cep70_human CEP70, Q8NHQ1.
Sequence of cep70_human CEP70, Q8NHQ1 (Q8NHQ1 whole entry): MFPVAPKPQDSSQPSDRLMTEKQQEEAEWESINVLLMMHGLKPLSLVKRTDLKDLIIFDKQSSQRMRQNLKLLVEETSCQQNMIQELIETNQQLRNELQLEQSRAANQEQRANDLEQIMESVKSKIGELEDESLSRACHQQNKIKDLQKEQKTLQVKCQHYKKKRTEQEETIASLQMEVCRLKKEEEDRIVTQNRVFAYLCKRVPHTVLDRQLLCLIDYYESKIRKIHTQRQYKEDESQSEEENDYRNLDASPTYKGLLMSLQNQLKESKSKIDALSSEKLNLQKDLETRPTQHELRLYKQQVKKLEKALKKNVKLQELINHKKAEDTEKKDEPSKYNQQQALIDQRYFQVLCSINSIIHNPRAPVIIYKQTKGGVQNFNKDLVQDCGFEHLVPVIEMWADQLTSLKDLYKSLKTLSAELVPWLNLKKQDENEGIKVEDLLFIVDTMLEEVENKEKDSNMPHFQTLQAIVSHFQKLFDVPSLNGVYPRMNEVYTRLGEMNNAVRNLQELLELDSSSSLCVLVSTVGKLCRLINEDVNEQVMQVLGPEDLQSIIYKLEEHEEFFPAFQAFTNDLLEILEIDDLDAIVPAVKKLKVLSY
For S697G, the “effect of a mutation on the interaction” value is reported as “with no effect”.
